Experimental data taken from article PMC13046434 (European journal of pharmacology, 2025).
Where two headings read alike, the source gives them in different places.

Assays:
[1] = biological target: T1, N198A hNET (Homo sapiens, UniProt P23975, N198A); experiment: kinetic analysis of [3H]DA uptake, N198A hNET; type: cell-based; parameters: expressed in transfected cells; host or cells: CHO cells, transient transfection with Lipofectamine 2000
Procedure: (§1) The kinetic parameters of [^3H]DA uptake, maximal velocity (Vmax) and Michalis-Menton constant (Km), were determined in CHO cells transiently transfected with WT hNET and its mutants seeded in 24 well plates as described above. […] After the 10-min incubation period, cells were incubated for 8 min at room temperature with a series of one of six concentrations of mixed [^3H]DA (0.001–1.0 μM, final concentration). The reaction was terminated by the removal of solution from the wells followed by three rapid washes of ice-cold 1 x KRH. Cells were lysed with 500 μL of 1 % SDS for 1 h and radioactivity measured as described above. Specific hNET-mediated DA uptake was calculated by subtracting the nonspecific uptake (in the presence of desipramine and nomifensine) from the total uptake.
(§2) Results are presented as mean ± SEM. The number of n represents the number of independent experiments from each experiment group. Kinetic parameters (Vmax and Km) were determined from saturation curves by nonlinear regression analysis using a one-site model with variable slope. IC50 values for the substrate and inhibitors for [^3H]DA uptake were determined from nonlinear regression analysis inhibition curves using a one-site model with variable slope. GraphPad Prism (version 10.1.2.) was used to calculate the kinetic parameters and IC50 values for substrate and inhibitors inhibiting [^3H]DA uptake or [^3H] WIN35428. For any experiment involving comparisons between unpaired samples, unpaired Student’s t tests were used to determine any difference between parameters between WT hNET and its mutants. Log-transformed IC50 values were used for statistical comparisons. One-way ANOVA comparisons with repeat measurements were used for analyzing the [^3H]DA and [^3H]MPP^+ efflux data. Significant differences between samples were analyzed with independent ANOVAs followed by post-hoc tests, which is indicated in the Results Section of the efflux experiments. All statistical analyses were performed using the IBM SPSS Statistics version 29 and returned values of at least p < 0.05 were considered significant.

[2] = biological target: T2, E223A hNET (Homo sapiens, UniProt P23975, E223A); experiment: kinetic analysis of [3H]DA uptake, E223A hNET; type: cell-based; parameters: expressed in transfected cells; host or cells: CHO cells, transient transfection with Lipofectamine 2000
T2 sequence (P23975 whole entry E223A): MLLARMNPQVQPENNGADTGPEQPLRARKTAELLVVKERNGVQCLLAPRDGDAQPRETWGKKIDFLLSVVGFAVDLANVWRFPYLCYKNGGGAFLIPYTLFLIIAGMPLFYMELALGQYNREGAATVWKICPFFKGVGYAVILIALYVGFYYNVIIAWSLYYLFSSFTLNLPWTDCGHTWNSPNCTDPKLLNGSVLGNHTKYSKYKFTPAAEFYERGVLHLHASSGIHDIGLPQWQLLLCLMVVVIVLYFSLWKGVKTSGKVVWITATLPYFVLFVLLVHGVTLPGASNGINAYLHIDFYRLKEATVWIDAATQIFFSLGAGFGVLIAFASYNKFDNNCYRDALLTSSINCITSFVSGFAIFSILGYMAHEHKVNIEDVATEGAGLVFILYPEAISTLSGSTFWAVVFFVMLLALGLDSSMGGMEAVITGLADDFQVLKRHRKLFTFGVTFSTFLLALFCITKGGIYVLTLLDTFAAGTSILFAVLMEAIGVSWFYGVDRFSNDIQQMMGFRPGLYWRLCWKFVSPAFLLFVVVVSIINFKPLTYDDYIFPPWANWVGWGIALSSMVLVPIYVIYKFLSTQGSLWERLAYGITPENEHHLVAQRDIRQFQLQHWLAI
Procedure: as §1, §2

[3] = biological target: T3, WT hNET (Homo sapiens, UniProt P23975); experiment: kinetic analysis of [3H]DA uptake, WT hNET; type: cell-based; parameters: expressed in transfected cells; host or cells: CHO cells, transient transfection with Lipofectamine 2000
T3 sequence (P23975 whole entry): as the sequence (P23975 whole entry E223A) above, with A223E counted along it
Procedure: as §1
Results are presented as mean ± SEM. […] Kinetic parameters (Vmax and Km) were determined from saturation curves by nonlinear regression analysis using a one-site model with variable slope. IC50 values for the substrate and inhibitors for [^3H]DA uptake were determined from nonlinear regression analysis inhibition curves using a one-site model with variable slope. […] Significant differences between samples were analyzed with independent ANOVAs followed by post-hoc tests, which is indicated in the Results Section of the efflux experiments. […]

[4] = biological target: T1, N198A hNET; experiment: basal [3H]DA and [3H]MPP+ efflux, N198A hNET; type: cell-based; parameters: expressed in transfected cells; host or cells: CHO cells, transient transfection with Lipofectamine 2000; conditions: across 90 min, preloaded 50 nM, 20 min
Procedure: (§3) To determine whether N198A or E223A hNET alters transporter conformational transients, [^3H]DA or [^3H]MPP^+ efflux was performed based on our previous studies ([Midde et al., 2015]; [Quizon et al., 2021]). Intact CHO cells in precoated 24-well plates transfected with WT hNET or its mutants were preloaded with [^3H]DA (50 nM final concentration) for 20 min or [^3H]MPP^+ (5 nM final concentration) for 30 min at room temperature. After the preloading period, cells were washed twice with 1 x KRH buffer before collecting fractional release samples. Total uptake of [^3H]DA or [^3H]MPP^+ at the zero time point was estimated from four wells per genotype that were lysed immediately with 1 % SDS after preloading period. Nonspecific uptake of [^3H]DA or [^3H]MPP^+ at zero time point was estimated from four wells per genotype that were incubated with the hNET inhibitors desipramine and nomifensine (100 μM and 10 μM final concentration, respectively) and lysed immediately with 1 % SDS after the preloading period. To collect fractional release, 500 μL of KRH buffer was added into a set of four wells and transferred to scintillation vials after 0 min as the initial fractional efflux. Fresh 500 μL of 1 x KRH buffer was added into the wells and incubated for 10 min then transferred to scintillation vials. Fractional efflux was collected every 10 min for 90 min ([^3H]DA) or 110 min ([^3H]MPP^+). […]

[5] = biological target: T2, E223A hNET; experiment: basal [3H]DA and [3H]MPP+ efflux, E223A hNET; type: cell-based; parameters: expressed in transfected cells; host or cells: CHO cells, transient transfection with Lipofectamine 2000; conditions: across 90 min, preloaded 50 nM, 20 min
Procedure: as §3

[6] = biological target: T3, WT hNET; type: binding; parameters: expressed in transfected cells; host or cells: CHO cells, transient transfection with Lipofectamine 2000
[7] = biological target: T1, N198A hNET; type: binding; parameters: expressed in transfected cells; host or cells: CHO cells, transient transfection with Lipofectamine 2000
[8] = biological target: T2, E223A hNET; type: binding; parameters: expressed in transfected cells; host or cells: CHO cells, transient transfection with Lipofectamine 2000
[9] = biological target: T3, WT hNET
[10] = biological target: T1, N198A hNET
[11] = biological target: T2, E223A hNET
[12] = biological target: T3, WT hNET; experiment: Ki of rTat1-86 inhibiting [3H]DA uptake in WT hNET cell suspensions; type: cell-based; parameters: expressed in transfected cells; host or cells: CHO cells, transient transfection with Lipofectamine 2000
Procedure: To determine the inhibitor constant (Ki) of rTat1-86 inhibiting DA uptake in WT hNET, cells in 10 cm plates were cultured and transfected with WT hNET as described above. All reagents were made in 1 x KRH containing 0.1 % Protease Inhibitor Cocktail 1 (P2850, Sigma-Aldrich) and 0.1 % Protease Inhibitor Cocktail (P8340, Sigma-Aldrich). Cells were detached and harvested as described above. The cell suspensions were then incubated with a range of rTat1-86 (0.25–140 nM, final concentrations) for 20 min at room temperature. […] The reaction was then terminated as described above.

[13] = per 10^6 cells, DA 0.001-1.0 μM

T1 sequence (P23975 whole entry N198A): as the sequence (P23975 whole entry E223A) above, with N198A, A223E counted along it

NCCc1ccc(O)c(O)c1 [[^3H]DA, 3,4-ethyl-2[N-P^3PH]dihydroxyphenylethylamine]
Km [1]: 0.084 ± 0.02 µM | Km [2]: 0.066 ± 0.011 µM | Km [3]: 0.057 ± 0.008 µM

[3H]c1c([3H])c(CCN)c([3H])c(O)c1O [[^3H]DA, 3,4-ethyl-2[N-P^3PH]dihydroxyphenylethylamine]
reduction in Vmax of [3H]DA uptake compared to WT hNET [1]: 82.6% | Vmax of [3H]DA uptake [1, 13]: 91.4 ± 16.4 fmol/min/10^6 | overall [3H]DA efflux compared to WT hNET [4]: significantly reduced | reduction in Vmax of [3H]DA uptake compared to WT hNET [2]: 71.2% | Vmax of [3H]DA uptake [2, 13]: 151.1 ± 14.5 fmol/min/10^6 | Vmax of [3H]DA uptake [3, 13]: 525.4 ± 89.8 fmol/min/10^6 | overall [3H]DA efflux compared to WT hNET [5]: significantly reduced

COC(=O)[C@H]1[C@@H](c2ccc(F)cc2)C[C@@H]2CC[C@H]1N2C [[^3H]WIN35428]
specific [3H]WIN35428 binding [6]: 14083 ± 1198 DPM | specific [3H]WIN35428 binding normalized as a percentage of WT hNET [6]: 100 ± 8.5% | specific [3H]WIN35428 binding [7]: 11361 ± 652 DPM | specific [3H]WIN35428 binding normalized as a percentage of WT hNET [7]: 80.67 ± 4.6% | specific [3H]WIN35428 binding [8]: 11806 ± 567 DPM | specific [3H]WIN35428 binding normalized as a percentage of WT hNET [8]: 83.83 ± 4.0

rTat1-86: recombinant HIV-1 transactivator of transcription (rTat1-86), purchased from ImmunoDX
reduction of specific [3H]DA uptake relative to control ([9]; 8.75 nM rTat1-86): 24.2% | specific [3H]DA uptake with Tat, direct counts ([9]; 8.75 nM rTat1-86 (without Tat: 2778 ± 240)): 2106 ± 191 DPM | reduction of specific [3H]DA uptake relative to control ([9]; 140 nM rTat1-86): 34.22% | specific [3H]DA uptake with Tat, direct counts ([9]; 140 nM rTat1-86 (without Tat: 1870 ± 238)): 1230 ± 163 DPM | reduction of specific [3H]DA uptake relative to control ([9]; 140 nM rTat1-86, listed as recombinant Tat1-86): 34% | Tat-induced reduction of [3H]DA uptake compared to its control ([10]; 8.75 nM rTat1-86): attenuated | specific [3H]DA uptake with Tat, direct counts ([10]; 8.75 nM rTat1-86 (without Tat: 1934 ± 210)): 1883 ± 175 DPM | Tat-induced reduction of [3H]DA uptake compared to its control ([10]; 140 nM rTat1-86): attenuated | specific [3H]DA uptake with Tat, direct counts ([10]; 140 nM rTat1-86 (without Tat: 912 ± 212)): 954 ± 213 DPM | Tat-induced reduction of [3H]DA uptake compared to its control ([11]; 8.75 nM rTat1-86): attenuated | specific [3H]DA uptake with Tat, direct counts ([11]; 8.75 nM rTat1-86 (without Tat: 2113 ± 237)): 1950 ± 215 DPM | reduction of specific [3H]DA uptake relative to control ([11]; 140 nM rTat1-86): 26.98% | specific [3H]DA uptake with Tat, direct counts ([11]; 140 nM rTat1-86 (without Tat: 1711 ± 261)): 1206 ± 239 DPM | predicted occupancy of hNET molecules ([12]; 8.75 nM rTat1-86, approximately 2.6-fold the Ki): ~ 72% | predicted occupancy of hNET molecules ([12]; 140 nM rTat1-86, approximately 41.2-fold the Ki): ~ 98% | plateau of Tat's inhibitory effect on DA uptake ([12]; WT hNET, Tat concentrations from 8.75 nM to 140 nM): 65.2% | Ki ([12]; WT hNET, rTat1-86 0.25-140 nM, 20 min, 50 nM [3H]DA, read-out: Ki for inhibiting hNET-mediated DA uptake): 3.4 nM
